Source: the supplement of paper PMC10126150
± gives the standard deviation of the averaged measurements.

Tested on: ATP
Assay: switch fluorescence ratio, 500 uM ATP over buffer (Cy3 cluster intensity, sum of 5 cycles each) (fold (ratio)); higher = stronger signal-on switching upon ATP binding; sequences stand for … in TCGTCGGCAGCGTCAGATGTGTATAAGAGACAGTTTTTTTTTTTTTTTTTTTTTTTTT…TC
Details: aptamer strand: ATP DNA aptamer (quencher-CACCTGGGGGAGTATTGCGGAGGAAGG + anchor), 100 nM annealed; ATP concentration: 500 uM
Summary of the method: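 Cy3-labelled switching-strand clusters on a modified Illumina MiSeq flow-cell were annealed to 100 nM quencher-labelled ATP aptamer and imaged first in selection buffer, then after 15 min with 500 uM ATP at 22 °C. NaOH stripping and re-annealing separated each of five buffer/ATP cycles, and clusters outside 100-1000 RFU were excluded. The fluorescence ratio sums target-cycle Cy3 intensity over buffer-cycle Cy3 intensity per cluster and averages it per switch-domain sequence.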
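Further: ATP exposure 15 min at 22 °C before imaging.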

Row | Sequence | switch fluorescence ratio
1 | CTTGCTGCTG | 0.972 ± 0.044
2 | CTTGGACGGG | 0.9706 ± 0.0021
3 | CTTGGCAAGG | 1.03 ± 0.04
4 | CTTGGCGGGC | 1.01 ± 0.04
5 | CTTGGCTGTT | 0.986 ± 0.018
6 | CTTGGGGGGT | 0.97564 ± 0.00052
7 | CTTGGGTAAG | 0.988 ± 0.033
8 | CTTGGGTATA | 1.25 ± 0.29
9 | CTTGGGTTGC | 0.9961 ± 0.0092
10 | CTTGTAACCT | 1.8 ± 0.061
11 | CTTGTAGCAG | 1.09 ± 0.021
12 | CTTGTATGGG | 1.01 ± 0.029
13 | CTTGTCCAGC | 1.04 ± 0.037
14 | CTTGTCGTTC | 1.01 ± 0.026
15 | CTTGTGAGTT | 0.979 ± 0.016
16 | CTTGTGTGGT | 1.02 ± 0.014
17 | CTTGTTAGGA | 1 ± 0.012
18 | CTTGTTAGTA | 0.987 ± 0.027
19 | CTTGTTGATT | 1.009 ± 0.0056
20 | CTTGTTTGAC | 0.988 ± 0.044
21 | CTTTAACGTG | 0.9718 ± 0.004
22 | CTTTAAGCAA | 4.65 ± 0.36
23 | CTTTAAGGCA | 0.981 ± 0.017
24 | CTTTAAGGGG | 1.01 ± 0.03
25 | CTTTAATTTT | 1.01 ± 0.055

Row | Sequence | switch fluorescence ratio
26 | CTTTACGGGC | 1.02 ± 0.038
27 | CTTTATAGGA | 0.9944 ± 0.0056
28 | CTTTATAGTT | 1.02 ± 0.034
29 | CTTTATGCGA | 1.033 ± 0.0093
30 | CTTTCAAAAA | 1.03 ± 0.015
31 | CTTTCAGGCT | 0.984 ± 0.016
32 | CTTTCTTTTT | 0.992 ± 0.018
33 | CTTTGCCTAG | 0.9806 ± 0.0088
34 | CTTTGGATTG | 0.99917 ± 0.00068
35 | CTTTGGGCAA | 1.46 ± 0.089
36 | CTTTGGGGAC | 1.055 ± 0.006
37 | CTTTGGGGCG | 1.01 ± 0.044
38 | CTTTGGGTTT | 0.981 ± 0.058
39 | CTTTGGTAGG | 0.992 ± 0.025
40 | CTTTGGTATA | 0.977 ± 0.0051
41 | CTTTGGTTGA | 0.995 ± 0.031
42 | CTTTGTCGGT | 1.03 ± 0.054
43 | CTTTGTGATA | 1.04 ± 0.025
44 | CTTTTAGTTG | 0.993 ± 0.017
45 | CTTTTATTTA | 0.99186 ± 0.00094
46 | CTTTTGGAGT | 0.986 ± 0.05
47 | CTTTTGTCAC | 1.05 ± 0.042
48 | CTTTTGTCGT | 1.01 ± 0.028
49 | CTTTTTATGA | 1.01 ± 0.027
50 | CTTTTTATTT | 1.14 ± 0.22

Row | Sequence | switch fluorescence ratio
51 | CTTTTTGTGG | 0.9838 ± 0.0075
52 | CTTTTTTAGA | 0.9746 ± 0.0097
53 | GAAAAAAAAA | 0.992 ± 0.023
54 | GAAAAAAAAG | 1.07 ± 0.1
55 | GAAAAAAGAT | 1.02 ± 0.014
56 | GAAAAAAGGC | 1.03 ± 0.032
57 | GAAAAAGCCC | 1.04 ± 0.031
58 | GAAAAAGGAC | 1.27 ± 0.32
59 | GAAAAAGGGA | 0.979 ± 0.026
60 | GAAAAAGGTC | 1.031 ± 0.008
61 | GAAAAATTTT | 1.02 ± 0.026
62 | GAAAAGAGTC | 1.07 ± 0.034
63 | GAAAAGCCCC | 1.09 ± 0.059
64 | GAAAAGTAAG | 1.018 ± 0.008
65 | GAAAATTATA | 1.02 ± 0.035
66 | GAAAATTATG | 1.009 ± 0.0086
67 | GAAACAGGAT | 1.02 ± 0.058
68 | GAAACCGGAG | 1.567 ± 0.015
69 | GAAACCTATT | 1.0142 ± 7.7e-05
70 | GAAACGAAGG | 0.9704 ± 0.0028
71 | GAAACGGTGT | 1.02 ± 0.031
72 | GAAACTTGGT | 1.004 ± 0.0065
73 | GAAAGAAGGG | 1.21 ± 0.35
74 | GAAAGAGGGA | 1.02 ± 0.079
75 | GAAAGAGTTC | 0.99729 ± 0.00094

Row | Sequence | switch fluorescence ratio
76 | GAAAGATGAC | 1.03 ± 0.088
77 | GAAAGCGGGG | 0.968 ± 0.024
78 | GAAAGGGGCT | 0.993 ± 0.031
79 | GAAAGGGGGA | 1.02 ± 0.025
80 | GAAAGGGGTC | 1.01 ± 0.074
81 | GAAAGGGGTT | 1.02 ± 0.035
82 | GAAAGGGTCC | 1.001 ± 0.01
83 | GAAAGGTAAG | 0.9934 ± 0.0036
84 | GAAAGTAGAG | 1.01 ± 0.0018
85 | GAAAGTGCAT | 0.999 ± 0.042
86 | GAAAGTTAGG | 1.1 ± 0.14
87 | GAAATAACTC | 1.36 ± 0.43
88 | GAAATAGGTT | 0.989 ± 0.012
89 | GAAATATAAT | 1.012 ± 0.0066
90 | GAAATCGGGG | 1.05 ± 0.15
91 | GAAATCGTTC | 1.02 ± 0.019
92 | GAAATGAAGG | 0.973 ± 0.016
93 | GAAATGATTT | 1.0406 ± 6.4e-05
94 | GAAATGCGGC | 0.97935 ± 0.00044
95 | GAAATGGCAA | 1.03 ± 0.051
96 | GAAATGGCGT | 0.986 ± 0.038
97 | GAAATGTGAG | 0.9797 ± 0.0045
98 | GAAATTCCGC | 1.27 ± 0.088
99 | GAAATTGAGT | 1 ± 0.027
100 | GAAATTGGCA | 1.025 ± 0.004
